Experimental data published in article doi:10.1101/2023.08.25.554918 (bioRxiv, 2023).

Columns and labels:
Assay in all cases: SEC
[1] = biological target: Chimera 1 (Pfu1-Pfu2-Ton3) (Pyrococcus furiosus | Thermococcus onnurineus)
[2] = biological target: Chimera 2 (Pfu1-Ton2-Pfu3) (Pyrococcus furiosus | Thermococcus onnurineus)
[3] = biological target: Chimera 3 (Ton1-Ton2-Pfu3) (Thermococcus onnurineus | Pyrococcus furiosus)
[4] = biological target: Chimera 4 (Ton1-Pfu2-Ton3) (Thermococcus onnurineus | Pyrococcus furiosus)
[5] = biological target: Chimera 5 (Pfu1-Ton2-Ton3) (Pyrococcus furiosus | Thermococcus onnurineus)
[6] = biological target: Chimera 6 (Ton1-Pfu2-Pfu3) (Thermococcus onnurineus | Pyrococcus furiosus)
[7] = biological target: Domain 1 of PfuAmyGT (Pfu1) (Pyrococcus furiosus)
[8] = biological target: the molecule itself

Chimera 1 (Pfu1-Pfu2-Ton3) (enzyme)
stoichiometry N [1]: 2

Chimera 2 (Pfu1-Ton2-Pfu3) (enzyme)
stoichiometry N [2]: 2

Chimera 3 (Ton1-Ton2-Pfu3) (enzyme)
stoichiometry N [3]: 2

Chimera 4 (Ton1-Pfu2-Ton3) (enzyme)
stoichiometry N [4]: 2

Chimera 5 (Pfu1-Ton2-Ton3) (enzyme)
stoichiometry N [5]: 2

Chimera 6 (Ton1-Pfu2-Pfu3) (enzyme)
stoichiometry N [6]: 2

Domain 1 of PfuAmyGT (Pfu1) (domain or fragment)
stoichiometry N [7]: 4

B1: PfuAmyGT (Pfu1-Pfu2-Pfu3), GH57 4-α-glucanotransferase from Pyrococcus furiosus (enzyme)
chain: MGDKINFIFGIHNHQPLGNFGWVFEEAYEKCYWPFLETLEEYPNMKVAIHTSGPLIEWLQDNRPEYIDLLRSLVKRGQVEIVVAGFYEPVLASIPKEDRIEQIRLMKEWAKSIGFDARGVWLTERVWQPELVKTLKESGIDYVIVDDYHFMSAGLSKEELYWPYYTEDGGEVIAVFPIDEKLRYLIPFRPVDKVLEYLHSLIDGDESKVAVFHDDGEKFGIWPGTYEWVYEKGWLREFFDRISSDEKINLMLYTEYLEKYKPRGLVYLPIASYFEMSEWSLPAKQARLFVEFVNELKVKGIFEKYRVFVRGGIWKNFFYKYPESNYMHKRMLMVSKLVRNNPEARKYLLRAQCNDAYWHGLFGGVYLPHLRRAIWNNLIKANSYVSLGKVIRDIDYDGFEEVLIENDNFYAVFKPSYGGSLVEFSSKNRLVNYVDVLARRWEHYHGYVESQFDGVASIHELEKKIPDEIRKEVAYDKYRRFMLQDHVVPLGTTLEDFMFSRQQEIGEFPRVPYSYELLDGGIRLKREHLGIEVEKTVKLVNDGFEVEYIVNNKTGNPVLFAVELNVAVQSIMESPGVLRGKEIVVDDKYAVGKFALKFEDEMEVWKYPVKTLSQSESGWDLIQQGVSYIVPIRLEDKIRFKLKFEEASG
stoichiometry N [8]: 2
